From US20030118557A1, “Axon repair” (priority 2001, published 2003)

Tested on: dorsal root ganglion (DRG) neurons
Assay: short-term in vitro axon outgrowth assay with adult DRG neurons from transgenic mice
Format: cell-based
Settings: for propensity / number of adult DRG neurons that extended axons: acute outgrowth assay, naive neurons; for extension of long (>300 μm) axons: naive adult DRG neurons from transgenic mice, short-term culture
Procedure: For the in vitro analysis, dorsal root ganglion (DRG) neurons from adult mice (>8 weeks) were dissociated essentially as described (Smith et al, J. Neurosci. 17:646-658 (1997)), and centrifuged at 200×g for 10 minutes through a cushion of 10% Ficoll in F14 culture medium to remove myelinated axons, cellular debris and non-neuronal cells. Neurons were resuspended in serum-free F14 medium containing N1 supplements, and plated on polylysine/laminin coated glass coverslips as described (Smith et al, J. Neurosci. 17:646-658 (1997)). Cells from 12-14 ganglia were plated in 12 wells of a standard 24-well plate. After 18-24 hours, cultures were fixed in 4% paraformaldehyde for 30 minutes at room temperature, washed and stained with antibodies to detect neurons expressing chicken CAP-23 (monoclonal antibody 15C1) and chicken GAP-43 (rabbit polyclonal antibody) (Caroni et al, J. Cell Biol. 136:679-692 (1997), Aigner et al, Cell 83:269-278 (1995)). To visualize all neuronal processes, cultures were stained with antibodies to β III tubulin (MAB 1637; Chemicon, Temecula, Calif.). Cells were viewed with a CCD camera and analyzed with IPLab 3.2 for the Macintosh (Scanalytics, Inc., Fairfax, Va.). Only neurons that stained strongly for the appropriate transgene(s) were analyzed. In control cultures, cells that stained strongly for the neuron-specific β III tubulin were analyzed. Cells with processes greater than 2 cell body diameters were scored. The length of the longest process for each cell, and the number of branches formed along that process, were then measured.
To identify genes responsible for the onset of axon regeneration, a short-term in vitro assay was used that monitors a transcription-dependent switch in axon extension induced in DRG neurons by axon injury (Smith et al, J. Neurosci. 17:646-658 (1997)). Neurons are removed from adult animals and cultured for 18-24 hours (Smith et al, J. Neurosci. 17:646-658 (1997)). Because the neurons are axotomized during this removal, they will eventually respond by inducing the full complement of growth-associated genes (Smith et al, J. Neurosci. 17:646-658 (1997)). Over the first 24 hours in culture, however, axon outgrowth depends only on genes that were already expressed in the neurons at the time of their removal from the animal (Smith et al, J. Neurosci. 17:646-658 (1997)). Neurons isolated from adult mice with no prior manipulation (naive neurons) supported a limited amount of outgrowth (Smith et al, J. Neurosci. 17:646-658 (1997)) and FIG. 1), characterized by the emergence of relatively short and highly branched axons (FIGS. 2 and 3). In contrast, neurons that had responded to a peripheral nerve lesion several days before removal were much more likely to extend axons (FIG. 1), and those axons were long and sparsely branched (FIGS. 2 and 3). This “elongating” growth resembles the extension required for nerve regeneration in vivo, and reflects the expression of genes induced by peripheral nerve injury (Smith et al, J. Neurosci. 17:646-658 (1997)).

Row | Molecule | propensity / number of adult DRG neurons that extended axons | extension of long (>300 μm) axons | modal length of axons (naive adult DRG neurons, persistent transgene expression, 18-24 hours in culture)
1 | CAP-23: growth cone protein; chicken CAP-23 transgene expressed in mouse neurons under Thy-1 promoter (protein, UniProt P23614 2-244, looked up, transgene in mouse neurons, growth cone protein; chicken CAP-23 transgene expressed in mouse neurons under Thy-1 promoter) Brain acid soluble protein 1 …: GGKLSKKKKGYSVNDEKAKDKDKKAEGAATEEEETPKEAEDAQQTTETTEVKENNKEEKVEKDAQVSANKTEEKEGEKEKTVTQEEAQKAEPEKSEAVVDAKVEPQKNNEQAPKQEEPAAASAPAASSEAPKTSEPSSDAKASQPSEATAPSKADDKSKEEGEAKKTEAPATPAAQETKSEVAPASDSKPSSSEAAPSSKETVAATAAPSSTAKASDPSAPPEEAKPSEAPATNSDQTIAVQD | increased the number | did not elicit extension of long axons | 
2 | GAP-43: growth-associated growth cone protein; chicken GAP-43 transgene expressed in mouse neurons under Thy-1 promoter (protein, UniProt P35001 1-246, looked up, transgene in mouse neurons, growth-associated growth cone protein; chicken GAP-43 transgene expressed in mouse neurons under Thy-1 promoter) Neuromodulin: MLCCMRRTKQVEKNEDGDQKIEQDGIKPEDKAHKAATKIQASFRGHITRKKLKGEKKADAPASESEAADKKDEGPAGGAAENKESEASAATEASAADSAQLDEGSKDSSVPAEEKKGNGAADTGSEQPAPQAATPAASSEEKPAAAAETESATKASTDNSPSLKADEAQDKEEPKQADVPAADTTATTTPAAEDATAKATAQPQMETVESSQTEEKTDAVEETKPTESAQQEEVKEEESKADQENA | increased the propensity | Only a small fraction | 100-150 μm
